This is an account of results in patent publication US20220213181A1 (Novartis, published 2022).

Where “and” joins values, the source holds several entries; their conditions need not be identical. Identical values can stand only once.

Assay [1] deals with T1, Mouse ANGPTL4(26-410)-FLAG-His6-Avi (mouse, UniProt Q9Z1P8 24-410, biotin on the C-terminal Avi tag (BirA) where the protein is immobilised).
T1 sequence: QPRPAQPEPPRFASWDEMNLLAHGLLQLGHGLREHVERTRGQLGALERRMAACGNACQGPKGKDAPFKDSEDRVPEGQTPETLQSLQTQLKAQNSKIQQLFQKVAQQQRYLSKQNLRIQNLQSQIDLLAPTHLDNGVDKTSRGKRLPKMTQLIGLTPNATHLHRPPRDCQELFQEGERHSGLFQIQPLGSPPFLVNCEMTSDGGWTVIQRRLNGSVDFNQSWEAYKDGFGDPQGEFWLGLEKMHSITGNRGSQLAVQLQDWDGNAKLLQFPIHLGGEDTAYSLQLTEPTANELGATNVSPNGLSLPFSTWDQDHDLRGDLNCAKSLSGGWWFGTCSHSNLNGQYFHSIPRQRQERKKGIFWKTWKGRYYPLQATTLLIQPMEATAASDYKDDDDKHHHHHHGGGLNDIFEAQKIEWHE
Kind of assay: Octet (ForteBio) kinetics, biotinylated antigen on streptavidin sensor, IgG in solution; Octet kinetics, mouse ANGPTL4 on the sensor, antibody up to 25 nM; run 2.

For assay [2], the target named is T2, Rat ANGPTL4(24-405)-FLAG-His6-Avi (rat, UniProt Q6TMA8 24-405, biotin on the C-terminal Avi tag (BirA) where the protein is immobilised).
T2 sequence: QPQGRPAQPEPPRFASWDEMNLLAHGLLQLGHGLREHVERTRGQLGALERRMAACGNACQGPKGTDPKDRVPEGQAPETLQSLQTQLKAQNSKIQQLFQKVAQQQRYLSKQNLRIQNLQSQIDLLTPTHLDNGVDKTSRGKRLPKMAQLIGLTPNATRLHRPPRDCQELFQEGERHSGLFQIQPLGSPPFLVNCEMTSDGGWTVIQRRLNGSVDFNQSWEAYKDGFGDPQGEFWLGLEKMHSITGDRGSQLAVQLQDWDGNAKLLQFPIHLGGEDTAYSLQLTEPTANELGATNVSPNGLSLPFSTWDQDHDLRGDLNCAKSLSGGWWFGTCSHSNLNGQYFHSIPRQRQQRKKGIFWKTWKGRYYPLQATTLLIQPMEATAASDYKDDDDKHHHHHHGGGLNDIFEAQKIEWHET
Kind of assay: Octet (ForteBio) kinetics, biotinylated antigen on streptavidin sensor, IgG in solution; Octet kinetics, rat ANGPTL4 on the sensor, antibody up to 25 nM; run 2.

The target in assay [3] is T3, Human ANGPTL3(17-460)-FLAG-His-Avi (human, UniProt Q9Y5C1 17-460, biotin on the C-terminal Avi tag (BirA)).
T3 construct: also called full length human ANGPTL3; hANGPTL3
T3 sequence: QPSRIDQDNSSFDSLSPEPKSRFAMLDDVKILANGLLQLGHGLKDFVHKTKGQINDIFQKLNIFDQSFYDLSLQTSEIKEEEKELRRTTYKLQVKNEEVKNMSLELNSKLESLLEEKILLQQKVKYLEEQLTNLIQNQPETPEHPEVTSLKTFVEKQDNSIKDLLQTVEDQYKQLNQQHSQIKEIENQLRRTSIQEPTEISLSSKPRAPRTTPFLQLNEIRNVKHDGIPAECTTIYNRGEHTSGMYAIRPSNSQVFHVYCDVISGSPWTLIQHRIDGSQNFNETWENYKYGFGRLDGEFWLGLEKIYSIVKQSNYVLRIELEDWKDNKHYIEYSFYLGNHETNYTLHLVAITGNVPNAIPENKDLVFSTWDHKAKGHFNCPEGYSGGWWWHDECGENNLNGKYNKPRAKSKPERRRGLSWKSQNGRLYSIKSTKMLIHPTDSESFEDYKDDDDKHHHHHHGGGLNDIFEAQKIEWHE
Kind of assay: Octet (ForteBio) kinetics, biotinylated antigen on streptavidin sensor, IgG in solution; no binding at 25 nM.

The target of assay [4] is T4, Human ANGPTL4(26-406)-FLAG-His6-Avi (human, UniProt Q9BY76 24-406, biotin on the C-terminal Avi tag (BirA) where the protein is immobilised).
T4 construct: the text calls it 20 amino acids), then QP, ANGPTL4 26-406 and FLAG-His6-Avi; the signal peptide is left out here; also called full length human ANGPTL4; hANGPTL4
T4 sequence: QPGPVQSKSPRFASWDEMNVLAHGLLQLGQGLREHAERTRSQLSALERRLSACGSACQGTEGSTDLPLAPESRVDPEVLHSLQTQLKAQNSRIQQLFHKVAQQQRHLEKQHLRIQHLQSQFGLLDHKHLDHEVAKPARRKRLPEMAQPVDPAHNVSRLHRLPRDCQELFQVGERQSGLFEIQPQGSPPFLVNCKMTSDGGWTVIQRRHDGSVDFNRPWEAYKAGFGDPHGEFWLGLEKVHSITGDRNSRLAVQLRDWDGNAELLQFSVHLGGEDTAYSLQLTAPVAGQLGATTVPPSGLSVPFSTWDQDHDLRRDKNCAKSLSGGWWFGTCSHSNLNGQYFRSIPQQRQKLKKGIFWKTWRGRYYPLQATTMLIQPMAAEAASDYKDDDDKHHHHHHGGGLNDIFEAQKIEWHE
In words: Octet (ForteBio) kinetics, biotinylated antigen on streptavidin sensor, IgG in solution.

The target of assay [5] is T4, Human ANGPTL4(26-406)-FLAG-His6-Avi. In words: Octet (ForteBio) kinetics, biotinylated antigen on streptavidin sensor, IgG in solution; upper limit by the footnote. As to the method: Dissociation constants (KD) were determined for selected antibodies of the invention by using an Octet (ForteBio) kinetic binding assay. ForteBio 10× Kinetics Buffer (ForteBio, catalog number 18-5032) was diluted 10-fold with DPBS (Life Technologies, catalog number 14190-136), and the resulting solution was added (0.2 ml per well) to a 96-well plate (Greiner, catalog number 65520). Streptavidin sensors (ForteBio, catalog number 18-5020) were immersed in the solution and equilibrated for at least 10 min at room temperature. In a second 96-well plate (Greiner, catalog number 65520), sensors were washed in 1× Kinetics buffer, and then immersed in 200 ul of 25 nM biotinylated human ANGPTL4 or a biotinylated reference protein (for background subtraction) for 1000 sec at […] room temperature. […] The sensors were then transferred to a well containing 200 μl 1× Kinetics buffer, and antibody dissociation was monitored for 1200 seconds. Background-corrected association and dissociation curves were globally fitted by Octet Software (ForteBio) to generate association (kₐ) and dissociation (kd) rate constants, which in turn were used to calculate equilibrium dissociation constants (KD).

B1: NEG276-LALA (antibody, human IgG1, kappa, L234A L235A)
heavy: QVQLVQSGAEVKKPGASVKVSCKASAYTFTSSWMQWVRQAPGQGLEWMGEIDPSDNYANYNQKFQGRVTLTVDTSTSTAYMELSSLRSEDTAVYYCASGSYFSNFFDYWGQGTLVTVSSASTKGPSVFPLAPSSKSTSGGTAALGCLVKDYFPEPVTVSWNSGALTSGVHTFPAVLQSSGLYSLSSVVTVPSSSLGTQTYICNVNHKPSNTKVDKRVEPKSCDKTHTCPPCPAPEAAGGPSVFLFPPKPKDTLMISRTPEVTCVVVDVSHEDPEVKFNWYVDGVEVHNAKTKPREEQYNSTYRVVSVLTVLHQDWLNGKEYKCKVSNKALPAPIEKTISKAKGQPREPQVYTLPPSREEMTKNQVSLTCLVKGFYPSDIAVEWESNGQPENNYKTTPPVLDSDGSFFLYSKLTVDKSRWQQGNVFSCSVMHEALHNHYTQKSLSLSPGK
light: EIVMTQSPATLSVSPGERATLSCKASQDIGSNLNWLQQKPGQAPRRLIYAVSNRGPGIPARFSGSRSGSEYTLTISSLQSEDFAVYYCLQYASSPWTFGQGTKVEIKRTVAAPSVFIFPPSDEQLKSGTASVVCLLNNFYPREAKVQWKVDNALQSGNSQESVTEQDSKDSTYSLSSTLTLSKADYEKHKVYACEVTHQGLSSPVTKSFNRGEC
Take B1: the koff in assay [1] is 0.0018 s⁻¹; in assay [2], 0.0011 s⁻¹; in assay [4] it was 5.9e-06 s⁻¹ and 6e-06 s⁻¹ and 7e-06 s⁻¹. For the same molecule, the kon in assay [1] is 430000 M⁻¹ s⁻¹; in assay [2] it was 170000 M⁻¹ s⁻¹; in assay [4], 410000 M⁻¹ s⁻¹ and 360000 M⁻¹ s⁻¹ and 430000 M⁻¹ s⁻¹ and 680000 M⁻¹ s⁻¹. Moreover, the equilibrium dissociation constant (Kd) in assay [3] was above 6 nM; in assay [4] it was 0.014 nM and 0.017 nM and ≤ 0.012 nM and 0.01 nM.

B2: NEG278 (antibody, human IgG1, kappa, V domains shown)
VH: QVQLVQSGAEVKKPGASVKVSCKASAYTFTSSWMQWVRQAPGQGLEWMGEIDPSDNYANYNQKFQGRVTLTVDTSTSTAYMELSSLRSEDTAVYYCASGSYFSNFFDYWGQGTLVTVSS
VL: EIVMTQSPATLSVSPGERATLSCKASQDIGSNLNWLQQKPGQAPRRLIYAASVREPGIPARFSGSRSGSEYTLTISSLQSEDFAVYYCLQYASSPWTFGQGTKVEIKR
notes: humanized, hIgG1/kappa, parental antibody 19C16
B2 yielded a Kd in assay [5] of at most 0.017 nM.
